Experimental data from paper PMC7364221.

molecular target: T1, ClbR (Escherichia coli Nissle 1917) (UniProt Q0P7J1); assay: EMSA; details: pH and temperature not stated
T1 sequence: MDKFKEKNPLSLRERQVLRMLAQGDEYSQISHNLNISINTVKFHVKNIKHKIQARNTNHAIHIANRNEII

Row | Sequence | binding
1 | CCAGTCACGACGTTGTAATACGACGGCCAGAGAATCCGTAATCATAGTCATAGCTGTATCCTGTGTGAAATTGTTATCCGCTCATAATTTCACACAACATACGAGCCGGACACATAGAGTGTAAAGACTGGGGTGCCTAATGAGTGAGCTGACTCACATTAATTGTGTTGCGCTCACTGCCCGCTTTCCAGTCGGGAAACTTGTCGTGCCAGCTGCATTAATGAATCGG (double strand) [lacZ promoter probe (229 bp)] | no binding
2 | GAGATTTTCCATGTAATAAGATGGACACGCGTAAGCAGTTACCGCTAACACCAAGTCAACAGGGGTTTTTATTCCATTCCTTAAAGGATAAGAAAAGGAGTAACTACCATGAGCA (double strand) [probe 8 (clbB upstream, 115 bp)] | no binding
3 | TGCGGATAGGTGTGCCATTTAGAATAATCATGTTAAATAATCTATAAATCCGATAATAAGGTGATGGTTATGGATAATACCTCTGGAGATTTTCCATGTAATAAGATGGACACGCGTAAGCAGTTACCGCTAACACCAAGTCAACAGGGGTTTTTATTCCATTCCTTAAAGGATAAGAAAAGGAGTAACTACCATGAGCA (double strand) [probe 11 (clbB upstream, 200 bp)] | no binding
4 | TGCTCATGGTAGTTACTCCTTTTCTTATCCTTTAAGGAATGGAATAAAAACCCCTGTTGACTTGGTGTTAGCGGTAACTGCTTACGCGTGTCCATCTTATTACATGGAAAATCTCCAGAGGTATTATCCATAACCATCACCTTATTATCGGATTTATAGATTATTTAACAT (double strand) [probe 7 (clbB upstream, 171 bp)] | no binding
5 | TGCTCATGGTAGTTACTCCTTTTCTTATCCTTTAAGGAATGGAATAAAAACCCCTGTTGACTTGGTGTTAGCGGTAACTGCTTACGCGTGTCCATCTTATTACATGGAAAATCTCCAGAGGTATTATCCATAACCATCACCTTATTATCGGATTTATAGATTATTTAACATGATTATTCTAAATGG (double strand) [probe 12 (clbB upstream, 186 bp)] | no binding
